A short description of this data set: soluble on expression in E. coli; label from the status in PepcDB or PDB records.
As to “MVLPERDSPCGWTRMIPLPSDGSVSIAGRSPRLNVEAVEAVVTLPTFKRPEQVLDTLASLRAQRTGRRFAVIVMENEAEVREGAKAVLPLFERGEMPGMVIVAQERGNCSAYNAGWQTAMLHFPNFRHLLVIDDDEIADPHWLERMCMAAETLGADIVGGPQVPVFADAAHARWAEHPVFAPPYRETGRVPALYSSGNLLVGRNVLVAMEPPFLDLKFNFMGGGDSDFLSRAVQNGFVLGWCAEAKVRETVPARRVEPDWIRARSLRNGVISTLVEKKKRAGTPLAGAEVLAKSLALLAAAPFRGLIRLARTGSPAIAIYPVHVALGRVLAEFGYANEQYRQPEKN”, the “soluble on expression in E. coli” value is given as “not soluble”.

For “MENLKNIQPREDFNWEEFEAGGVHAAVSRQEQEAAYDKTLNTIKEKEVVMGRVTAINKREVVINVGYKSEGVVPATEFRYNPELKVGDEVEVYIENQEDKKGQLVLSHRKARAARSWERVNEALEKDEIVKGYVKCRTKGGMIVDVFGIEAFLPGSQIDVRPIRDYDAFVEKTMEFKIVKINQEYKNVVVSHKVLIEAELEQQKKEII”, the “soluble on expression in E. coli” value is reported as “not soluble”.

For the sequence “MSLSELIKRLITAMTLCLTALLVHAQEWTKEDSLRLRKLLDSDQELNLNQDAVRQIDFGSAVGTPRMSVEKKWMLPDESLPEALPKPKVVLSLMPYKANTPYNWDPVFQKKIRMDKNTWRGDPHYEMRHQRSYSNWAHNPMAGGVRKSLEEIRASGVRFRQLSERANGMMVNSVVMDSPIPLFGGSGVYINGGTIGGLDLMAVFTKNFWDKKGKERRERTLEVLRTYGDSTTVLINRPIEQIAREGHHHHHH”, the “soluble on expression in E. coli” value is given as “not soluble”.

“MARGCDLCFPGRKAVVFVTGLCDDSCFYCPVSRAKLGRDVFYVNEVPVASVEEAVAEVLRTGASGASLTGGDPLVALHRTLDVARALKSELGRGFHIHLYTSGRRMTPEVARALWEAGVDEVRIHPTERSLLSRVGMVKRYTGMSVGVEMPIAPGLEELAIEAVKTVEAVGGDFVNLNEMEIVEPNARALLARGYTESGERPFTVRGALEAVLRVLEWAAENSSVPVHFCPASFKDSIQTGNRLRSSAARDAYWYEEPTPHGTLTWGEVRGGSPPPGLGEERGGRIMLPPRADLLETVVRMYGGEAYIVEAHPTPSRTPIVSERRIA”: the “soluble on expression in E. coli” value is “not soluble”.

For “MAHHHHHHMLSDNDLTFHIPSAGLRRMDAWTAPNPSVFSHLHLVGNPDWMSSFSASPQVAAARPALAPPAPVAIEPSAPRPLAAPAAIDAPAPATKKSFLSMFYRGSSNTVSSSVMPPKTSSASFAPMSAPPKALDAFDTPMQRALPVDAQLSVEHLSKLDAVDATISAAPRREPPHPMALGSDTWNALSSVPVPAKTAAGSARLLAPPASIDAVFSRDSKPLWSDLSFASRFRSTAPTLEAFRNAPPAPILSTPPRSPQHQATSSTATVATAFIPVPPKPVTASPLRDTAVSSVEAAAPATMPAARREPRAMAHPLVPVGEDAPAVVTPLLKPVQEIPMVSSKSANLAPSTVNATPPVWGPEPLSLASREPEPSALALPTEFAKSISRPTMQEAQRDEARAAANVRNFISTLFSGSGSDEMDSSTAGNRKADGFNALEFVTNRRGAQAKASQPVDYSTFFNTSLFEDDHDEDSEEGLEKLRRVVLMVMQSAKNSEGTCVSQPTSQSCRRGGGVDATGVAALTTFPSKYTEFSASYQTANNNNADDNEWMQFAR”, the “soluble on expression in E. coli” value is reported as “not soluble”.

As to “MSTVVDQEGNNKQQTVAVIGAGIIGINCALELQSLGYQVTLLDKEGIGLGCSKANAGHFATEQVFPLAEFSLLWQMPKLLFDPLGPVALSAKHFIKAIPWFMQFFNNMRPTLRNKNKKALQALNKNAIHHYTALLKAAEAEHLISLDGSLLVFETNDRTKVELMYQHYLAAGIAVKLLDKRQTLELEPNLSNNINYSLYFTDVAHTIDPLALSKTLAEFAMCKGMTFQQTAVTSVTQTQSGVTVEIDEQHLHVDHCVIACGAWSKKLLNGLNYHLPIEAERGYSLSLPISAAASALLSRPVASAERRFIITPMGKTLRLAGTVEYAGLNAPANYKRAEMLKGNAAYILKRLPENEEKQEAWMGCRPSLPDSLPVICQAPNHDKIFFALGHQHLGLTQGAITGKLIGQLVTGHSPEINIDPFCIRRFNLEHHHHHH”, the “soluble on expression in E. coli” value was “not soluble”.

For “MWTGKTGNMLGALALTLTDRIRAEVNVSLDAGGETAAALVLLGANPALTVAEIAEALGLTHSGAVRLVDRLCVSGLAERQSGPDARAVHVRLTSAGARQRRRALLRRQAVLDHALQALSPSEEAAFAQMLDKLLRRMLDFPDQGHRFCRLCDEDLCVPHGCPVEERLVELLERQARETGL”, the “soluble on expression in E. coli” value is listed as “not soluble”.

As to “MKRLQAFKFQLRPGGQQECEMRRFAGACRFVFNRALARQNENHEAGNKYIPYGKMASWLVEWKNATETQWLKDSPSQPLQQSLKDLERAYKNFFRKRAAFPRFKKRGQNDAFRYPQGVKLDQENSRIFLPKLGWMRYRNSRQVTGVVKNVTVSQSCGKWYISIQTESEVSTPVHPSASMVGLDAGVAKLATLSDGTVFEPVNSFQKNQKKLARLQRQLSRKVKFSNNWQKQKRKIQRLHSCIANIRRDYLHKVTTAVSKNHAMIVIEDLKVSNMSKSAAGTVSQPGRNVRAKSGLNRSILDQGWYEMRRQLAYKQLWRGGQVLAVPPAYTSQRCAYCGHTAKENRLSQSKFRCQVCGYTANADVNGARNILAAGHAVLACGEMVQSGRPLKQEPTEMIQATALEHHHHHH”, the “soluble on expression in E. coli” value is “not soluble”.

With “MCDKLGGVAIAVQGALFEHNERRQLGDGAFIDIRSGWLTGGEELLDALLSTVPWRAERRQMYDRVVDVPRLVSFHDLTIEDPPHPQLARMRRRLNDIYGGELGEPFTTAGLCYYRDGSDSVAWHGDTIGRGSTEDTMVAIVSLGATRVFALRPRGRGPSLRLPLAHGDLLVMGGSCQRTFEHAVPKTSAPTGPRVSIQFRPRDVR”, the “soluble on expression in E. coli” value is “not soluble”.

Consider “MSLGKYFGTDGVRGEANVELTPELAFKLGRFGGYVLSQHEPDRPRVFVARDTRISGELLESALVAGLLSVGIEVYKLGVLATPGVSYLVRTEQASAGVMISASHNPALDNGIKFFGGDGFKLADEQEAEIEALLDAKEDDLPRPSAQGLGMVVDYPEGLRKYEKFLVSTGSDLEGMKIAIDAANGAASYSARQVFLDLNADITVIGEEPDGLNINDGVGSTHPEQLQNLVKGSDFVIGLAFDGDSDRLIAVDENGEIVDGDKIMYIIGKYLSEKGRLSKNTIVTTVMSNLGFHKALDRENINKKITAVGDRYVVEEMRRSGYNLGGEQSGHVIIMDYNTTGDGQLTAIQLTKVMKETGKTLSELANEVTIYPQKLVNIYVKNDMKNKAMEVPMIAQIIEKMEAEMAGNGRILVRPSGTEPLLRVMAEAPSTEEVNYYVDTIAKVVKTEIGIEGHHHHHH”, for which the “soluble on expression in E. coli” value was “soluble”.

Regarding “MGSDKIHHHHHHAQDDANCNSNSSISHEAVKAGNFKDAYTPWKAVLENCPTLRFYTFTDGYKILKGLLGQIKDRNSAEYKKYFDELMNTHDLRMKYTQEFLGKGVKVSSEDEALGIKAVDYIAFAPKVDVNQAYDWLKKSVDAAKAESAAATLFYFLQMSHDKLKEDPAHKEQFIQDYLAASEYADDAIAAADKESVKKAFGGIKDNLVALFINSGTADCESLQGIYGPKVETNQTDLNYLKKVISIMKMMKCTDSDAYQQASFYVYKIEPSAEAATGCAYQAYKKGDIDGSVKFFDEAINLETDNAKKAEKAYAAASVLTTAKKLSQARSYAQKAISFNENYGAPYILIANLYAMSPNWSDESALNKCTYFAVIDKLQKAKSVDPSVTEEVNKMISRYSAYTPQAKDLFMLGYKAGDRITIGGWIGESTTIR”, the “soluble on expression in E. coli” value is recorded as “not soluble”.

In the case of “MTITGIIAEFNPFHNGHKYLLDQAEGLKIVAMSGNFMQRGEPAIVDKWTRTQMALENGADLVVELPFLVSVQAADFFGQGAMDILDRLGIDSLVFGTEEVRDYQKIADLYTEKGAEMEKFVENLPDSLSYPQKTQAMWKEFAGLDFSGNTPNHVLALAYAKAVAGRNIKLHPIQRQGAGYHSVNKDVDFASATALRQHQKDQDFLERFMPSVALFEQASKVIWEDYFPLLRYQILSNPDLTTIYQVNQEMAVRIKEAIKTAQSVEELVELVTTKRYTKARVRRLLTYILMQARESDLPEAIHVLGFTEKGRQHLKSLKGQVSLVSRIGKEPWDAMTQKADQIYQLGKPSIAEQNFGRVPIRIETN”, the “soluble on expression in E. coli” value was “soluble”.

Turning to “QGTDQYTILANRIANAVEQYRSQRALDASRERLSLFIDKSPLGVIEWDESFEVVQVNEKGEEILRRGESALAGKGFETLVPDSALDAVEETITALQEGSGGYYTVLDIETGDGEEIVCEWHNRIIREDGETVAIFSQFQEIT”, the “soluble on expression in E. coli” value is “not soluble”.

The record behind these values is the DeepSol protein solubility set.
